The nanobody polyreactivity screen of Harvey et al. (2022)

Experiment: yeast display, Sf9 membrane polyspecificity reagent, FACS + sequencing; frameworks hold sequencing errors
In short: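 Synthetic nanobody libraries on Saccharomyces cerevisiae BJ5465 were galactose-induced for 36–48 hours, stained 1 hour at 4 °C with 10% biotinylated, detergent-solubilized Sf9 membrane reagent and enriched on streptavidin microbeads. FACS then separated cells into low and high (top ~1%) gates by anti-HA (expression) and streptavidin (reagent binding) fluorescence. Genes were colony-PCR amplified, MiSeq 2 × 250 sequenced and CDR-length filtered. A clone's polyreactivity label is that of its gate of origin.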

| Sequence | polyreactivity (PSR sort gate) |
| --- | --- |
| QVQLVESGGGLVQAGGSLRLSCAASGRTFYWNPMGWYRQAPGKERELVAAITRNGGSTYYADSVKGRFTISRDNAKNTVYLQMNSLKPEDTAVYYCAARKRYGAGYDYWGQGTQVTVSS | high polyreactivity |
| QVQLEESGGGLVQAGGSLRLSCAASGRTFIYYAMGWYRQATGKEREFVAAITKSGGTTYYADSVKGRFTISRHNAKNTVYLQMNSLKPEDTAVYYCAKTTRRGFALYDYWGQGTQVTVSS | high polyreactivity |
| QVQLVESGGGLVQAGGSLRLSCAASGSTFFVYDMGWYRQAPGKERELVAAISISDGGTYYADSVKGRFTISRDNAKNTVYLQMNSQKPVDTAVYYCAADYSERYFRGYDYWGQGTQVTVSS | low polyreactivity |
| QDQLVESVGGLVQAGGSLRLSCAASGLTISQNAMGWYRQAPGKERELVAAITRSGSTTHYADSVKWRFTISRDNAKNTVYLQMNSLKPEDTAVYYCAAAHSYYGHYYYWGQGTQVTVSS | high polyreactivity |
| QVQLVESGGGLVQAGGSLRLSCAASGRIFGKNVMGLYRKAPGKERELVAAINRSSRTYYADSVKGRFTISRDNAKNTVYLQMNSLKPEDTAVYYCAAHAFPDGDYWGQGTQVTVSS | high polyreactivity |
| QVQLVESGGGLVQAGGSLRLSCAASGSTFPQNVMGWYRQAPGKERELVAAITRSAGSTYYADSVKGRFTISRDNAKNTVYLQMNSLKPEDTADYYCNTGRQRGDCWGQGTQVTVSS | high polyreactivity |
| QVQLVESGGGLFQAGGSLRLSCAASGRTFTWYAMGWYRQAPGKERELVAAISFSGGSTYYADSVKGRFTISRDNAKNTVYLQMNSLKPEDTAVYYCARPSGDAWEGPRMDYWGQGTQVTVSS | low polyreactivity |
| QVQLVESGGGLVQAGGSLRLSCAASGRIFYSYAMGWYRQAPGKERELVAVITYRGGRTYYADSVKGRFTISRDNAKNTVYLQMNSLKPEDTAVYYCARDPQFYLHTVTDGAYNYWGQGTQVTVSS | low polyreactivity |
| QVQLVESGGGLVQAGGSLRLSCAASGSIFPSNAMGWYRQAPGKERELVAAINRDGITNYADSVKGRFTISRDNAKNTVYLQMNSLKPEDTAVYYCAAEFAWQWWEYGYWGQGSQVTVSS | low polyreactivity |
| QVHLVESGGGLVQAGGSLRLSCAASGYTRFYALGWYRQAPGKERELVAAISSSGGNTYYADSVKGSFTISRDNAKNTVYLQMNSLKPEDTAVYYCAKYVSYSRTLYDYWGQGTQVTVSS | high polyreactivity |
| QVQLVESGGGLVQAGGSLRLSCAASGITYGYYAMGWYRQAPGKERELVATITDGGGTKYADSVKGRFTISRDNAKNTVYLQMNSLKPEDTAVYYCAAGLRHVYATEYDYWGQGTQVTVSS | low polyreactivity |
| QVQLVESGGGLVQAGGSLRLSCAASGITFFAYAMGWYRQAPGKERELVAAIWRGDNTYYADSVKGRFTISRDNAKNTVYLQMNSLKPEDTAVYYCAARYWSRRIFREGYWGQGTQVTVSS | high polyreactivity |
| QVQLVESGGGLVQAGGSLRLSCAASGRTFWWNAMGWYRQAPGKERELVAVISYSGGSTYYADSVKGRFTISRDNAKNTVYLQMNSLKPEDTAVYYCAAEAYTYWDTIYDYLGQGTQVTVSS | high polyreactivity |
| QVQLVESGGGLVQAGGSLRLSCAASGSTFSYNAMGWYRQAPGKERELVAAITSSGSSTYYADSVKGRFTISRYNAKNTVYLQMNSMKPEDTAVYYCNAEVLFVAGQVQRNSGDYWGQGTEVTVSS | low polyreactivity |
| QVQLEESGGGLVQAGGSLRLICAASGGIFRYYAMGWSRQAPGKERELVAAITQSGARTYYADSVKGRFTISRDNAKNTVYLQMNSMKPEDTAVYYCAADRTGSRYNSWGQGTQVTVSS | high polyreactivity |
| QVHLVESGGGLVQAGGSLRLSCAASGRNFYANAMGWYRQAPGKERELVAAISSGGSTYYADSVKGRFTISRDNAKNTVYLQMKSLKPEDTAVYYCAVYTHKKVRPEYDYWGQGTQVTVSS | low polyreactivity |
| QVQLVESGGGLVQAGGSLRLSCAASGFILDTYGMGWYRQAPGKERELVAAISQSDVSTYYADSVKGRFTISRDNAKNTVYLQMNSLKPEDTAVYYCAADRGGLRWFWQVLYDYWGQGTQVTVSS | low polyreactivity |
| QVQLVESGGGLVQAGGSLRLSGAASGRTLKWYAMGWYRQPPGKERELVAAISWSGGSTYYADSVKGRFTISRDNAKNTVYVQMNSLKPEDTAVYYCAAYYIYSSVGKSLYASMEYWGQGTQVTVSS | low polyreactivity |
| QVQLVESGGGLVQAVRSLRLSSAASGLTFGRNAMGWYRQAPGKERELVAAISRSGGRTSYADSVKGRFTISRDNAKNTVYLQMNSLKPEDTAVYYCAARSDVYTHDYWGQGTQVTVSS | high polyreactivity |
| QVQLVESGGGVVQAGGSLRLICAASGSTFYINTMGWYRPAPGKERELVAAISWTGGRTYYADSVKGRFTISRDNAKNTVYLQLNSLKPEDTAVYYCAAYYNIPDRRRVGYDYWGQGTQVTVSS | high polyreactivity |
| QLQLVESGGGLVQAGGSLRLSCAASGRTSRRYAMGWYRQAPGKERELVAAIRGSGGSTYYADSVKGRFTISRDNAKNTVYLQMNSLKPEDTAVYYCAADWSFWSLAYPSAKFYAEFDYWGQGTQVTVSS | high polyreactivity |
| QVQLVESGGGLVQAGGSLRLSCAASGITFDLYDMGWYRQAPGKERELVAAITDADSTYYADSVKGRFTISRDNAKNTVYLQMNSLKPEDTAVYYCAADFFYSVYSGHYDYWGQGTQVTVSS | low polyreactivity |

| Sequence | polyreactivity (PSR sort gate) |
| --- | --- |
| QVQLVESGGGLVQAGGSLRLSCAASGRIFGRYAMGWYRQAPGKERELVAVISSGGSTYYADSVKGRFTISRDNAKNTVYLQMNSLKREDTAVYYCAAVNRGGYDYWGQGTQVTVSS | low polyreactivity |
| QVQLVESGGRLVQEGGSLRLSCAASGRTFSKYAMGWYRQAPGKERELVAAITWRGGRTYYADSVNGRFTISRDNAKNTVYLQMNSLKPEDTAVYYCAADPSIYRIYQYTNRYDYWGQGTQVTVSS | high polyreactivity |
| QVQLVESGGGLVQAGGSLRLSCAASGSTFSGYAMGWYRQAPGKERELVAAITSGGSTNYADSVKGRFTISRDNAKNTVYLQMNSLKPEDTAVYYCAADSREVSTTAYYYWGQGTQVTVSS | low polyreactivity |
| QVQLVESGGGLVQAGGSLRLSCAASGRTFVSYDMGWYRQAPGKERELVAAITYSGGSSTYYADSVKGRFTISRDNAKNTVYLQMNSLKPEDTAVYYCATDYSLSFELDYWGQGTQVTVSS | low polyreactivity |
| QVQLVESGGGLVQAGGSLRLSCAASGSIFRVYAMGWYRQAPGKERELVAAITYSSGSTYYADSVKGRFTISRDNAKNTVYLQMNSLKPEDTAVYYCAAYWSYYLREFDYWGQGTQVTVSS | high polyreactivity |
| QVQLVESGGGLVQAGGSLRLSCAASGRTFYIYAMGWYRQAPGKERELVAAITYGGGRTFYADSVKGRFTISRDNAKNTVYLQMNSLKPEDTAVYYCARGDFYYHSRYTYYTSDYWGQGTQVTVSS | high polyreactivity |
| QVQLVESGGGLVQAGGSLRLSCAASGRIFNHYAMGWYRQAPGKERELVATISATGGSTYYADSVKGRFTISRDNAKNTVYLQMNSLNPEDTAVYYCNAGHLWYWRTRSARRVGMVYWGQGTQVTVSS | low polyreactivity |
| QVQLVESGGGLVQAGGSLRLICAASGRIFPSNAMGGSIQAPGKERELVAAINTGGSTYYADSVKGRFTISRDNAKNTVYLQMNSQKPEDTAVYYCAAARRYYYYWGQGTQVTVSS | high polyreactivity |
| QVQLVESGVGLVQAGGSLRLSCAASGRTFWYYGMGWYRQAPGKERELVAAISRSGGRTYYADSVKARFTISRDNAKNTVYLQMNSLKPEDTAVYYCGASYRRTFDYWGQGTQVTVSS | high polyreactivity |
| QVQLVDSGGGLVQAGGSLRLSCAASGRNFARYSMGWYRQAPGTERELVAAISWCGTSTYYADSVKGRYTISRDNAKNTVYLQMNSLKPEDTAVYYCAATYLYRDQPKWGGFAYTYGHWGQGTQVTVSS | high polyreactivity |
| QVQLVESGGGLVQAGGSLRLSCAASGSTFLGNAMGWYSQAPGKERELVASISWSGGSTSYADSVKGRFTISRDIAKNTVYLLMNSLKPEDTAVYYCAVDWRYTGRTYYGMESWGQGTQVTVSS | low polyreactivity |
| QVQLVESGGGLVQAGGSLRLSCAASGFIIKYYAMGWYRQAPGKERELVAAIDGSSASTYYADSVKGRFTISRDNAKNTVYLQMNSLKPEDTPVYYCAVARLRRGGVQYGYWGQGTQVTVSS | high polyreactivity |
| QVQLVESGGGLVQAGGSLRLSCAASGSIISFYAMGWYRQAPGKEREMVAVISDIGGSTYYADSVKGRFTISRDNAKNTDYLEMNSLKPEDTAVYYCAAGCHARTWYAYYYWGQGTQVTVSS | low polyreactivity |
| QVQLVESGGGLVQAGGSLRLSCAASGFIYDKYVMGWSRQAPGKERQLVAAISSGGSTYYADSVKGRFTISRDNAKNTVYLQMNSLKPEDTAVYYCNAGGFWPWVYGYDSWGQGTQVTVSS | high polyreactivity |
| QVQLVESGGGLVQAGGSLRLSCAASGRTFKPYAMGWYRQAPGKERELVAVITSNGSSTYYADSVKGRFTISRDNAKNTVYLQMNSLKPEDTAVYYCATKLTYTLTSGAYAYDYWGQGTQVTLSS | low polyreactivity |
| QVQLLESGGGLVQSGGSLRVSCAASGSTFYAYSMGWYRQAPGKERELVAALDSGGSTYADSVKGRFPISRANAKHTVYLQMNSLKPEETAVYYCAADLITRSDYWWTGWIWEYDYWGQGTQVTVSS | low polyreactivity |
| QVQLVESGGGLVQAGGSLRLSCAASGRILPLYAMGWYRQAPGKERELVARIDSGGSTNYADSVKGRFTISRDNAKNTVYLQMNSLKPEDTAVYYCAAVVTAQAYAYFTYGYDYWGQGTQVTVSS | low polyreactivity |
| QVQLVESGGGVVQAGGSLLLSCAASGRIFWYYAMGWYRQAHGKERELVATITRGGNTYFADSVKGRFTISRDNAKNTVYLQMNSLKPEDNAVYYCAASQRYSVIYYGFSEYDYWGQGTQVTVSS | high polyreactivity |
| QVQLVESGGGLVQAVGSLRLSCAASGRIFYSYAMGWYRQAPGKERELVAAITRGGSTSYADSVKGRFTISRDNAKNTVYLQMNSLKPDDTAVYYCATRQFYSYWKYYYWGQGTQVTVSS | high polyreactivity |
| QVQLVESGGGLVQAGGSLRLSCAASGFIDAYTMGWYRQAPGKERELVAAMTWSGGRTYYADSVKGRFTISRDNAKNTVYLQLYSLKPEDTAVYYCAKDVTPYSPDDDYWGQGTQVTVSS | low polyreactivity |
| QVQLVESGGGLVQAGGSLRLICAASGLILKYYAMGWYRQAPGKEREFVAAITRRGGITYYADSVKGRFTISRDNAKNTVYLQMNSLKPEDTAVYYCAADPKLGSLAYWRYSYPLYDYWGQGTQVTVSS | low polyreactivity |
